Laboratory results reported in US20050187155A1 (NESTEC S A, published 2005).

T1: MMP-7
T1 sequence (P09237 95-267, species assumed, looked up): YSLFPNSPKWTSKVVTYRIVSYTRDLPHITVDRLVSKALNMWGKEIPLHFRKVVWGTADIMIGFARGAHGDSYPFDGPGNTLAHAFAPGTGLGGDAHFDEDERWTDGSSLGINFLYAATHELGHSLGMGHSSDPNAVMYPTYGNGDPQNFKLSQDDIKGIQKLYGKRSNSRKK


Legend:
Test in all cases: cell-based or functional assay
MMP-9 = target: MMP-9
MMP-2 = target: MMP-2
MMP-7 = target: T1, MMP-7
[1] = target: angiotensin-converting enzyme (ACE)

Binder | IC50 for the inhibition of MMPs using a fluorescein conjugated gelatin (MMP-9) [µM] | IC50 for the inhibition of MMPs using a fluorescein conjugated gelatin (MMP-2) [µM] | IC50 for the inhibition of MMPs using a fluorescein conjugated gelatin (MMP-7) [µM] | IC50 for the inhibition of ACE using the substrate FAPGG [1] [µM]
ENLLRFFVAPFPEVFG [ENLLRFFVAPFPEVFG (SEQ ID NO:22)] | 150 | 425 | 1000 | 250
ENLHLPLPLL [ENLHLPLPLL (SEQ ID NO:19)] | 300 | 200 | 275 | 250
FVAPFPEVFG [FVAPFPEVFG (SEQ ID NO:23)] | 400 | 500 | 300 | 650

The next lines start with the values.

IC50 for the inhibition of MMPs using a fluorescein conjugated gelatin (MMP-9) [µM] | IC50 for the inhibition of MMPs using a fluorescein conjugated gelatin (MMP-2) [µM] | IC50 for the inhibition of MMPs using a fluorescein conjugated gelatin (MMP-7) [µM] | IC50 for the inhibition of ACE using the substrate FAPGG [1] [µM] | Binder
50 | 275 | 850 | 55 | NENLLRFFVAPFPEVFG [NENLLRFFVAPFPEVFG (SEQ ID NO:21)]
600 | 450 | 1200 | 15 | NLHLPLPLL [NLHLPLPLL (SEQ ID NO:12)]
300 | 150 | 250 | 175 | VENLHLPLPLL [VENLHLPLPLL (SEQ ID NO:18)]
150 | 250 | 300 | 280 | LNENLLRFFVAPFPEVFG [LNENLLRFFVAPFPEVFG (SEQ ID NO:20)]
